# Measurements from IntAct's records for PubMed 16682949.
# B1: Nuclear distribution protein nudE homolog 1 (Homo sapiens), Q9NXR1 (parent)
# chain: MEDSGKTFSSEEEEANYWKDLAMTYKQRAENTQEELREFQEGSREYEAELETQLQQIETRNRDLLSENNRLRMELETIKEKFEVQHSEGYRQISALEDDLAQTKAIKDQLQKYIRELEQANDDLERAKRATIMSLEDFEQRLNQAIERNAFLESELDEKENLLESVQRLKDEARDLRQELAVQQKQEKPRTPMPSSVEAERTDTAVQATGSVPSTPIAHRGPSSSLNTPGSFRRGLDDSTGGTPLTPAARISALNIVGDLLRKVGALESKLASCRNLVYDQSPNRTGGPASGRSSKNRDGGERRPSSTSVPLGDKGLDTSCRWLSKSTTRSSSSC
# B2: Nuclear distribution protein nudE homolog 1 (Homo sapiens), Q9NXR1 (parent)
# chain: B1 chain
# partner: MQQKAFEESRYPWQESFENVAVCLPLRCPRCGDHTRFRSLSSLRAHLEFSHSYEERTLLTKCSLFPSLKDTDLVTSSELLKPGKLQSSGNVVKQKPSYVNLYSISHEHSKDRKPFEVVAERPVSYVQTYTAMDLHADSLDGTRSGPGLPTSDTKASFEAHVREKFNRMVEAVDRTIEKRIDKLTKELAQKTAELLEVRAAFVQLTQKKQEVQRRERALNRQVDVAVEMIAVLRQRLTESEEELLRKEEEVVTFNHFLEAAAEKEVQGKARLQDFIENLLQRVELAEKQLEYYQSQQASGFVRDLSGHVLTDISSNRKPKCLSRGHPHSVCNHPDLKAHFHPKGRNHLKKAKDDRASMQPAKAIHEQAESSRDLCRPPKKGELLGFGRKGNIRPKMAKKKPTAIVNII
# Variants of: B1
# Conditions: with cdk1_human CDK1, P06493
# Sequence of cdk1_human CDK1, P06493 (P06493 whole entry, looked up): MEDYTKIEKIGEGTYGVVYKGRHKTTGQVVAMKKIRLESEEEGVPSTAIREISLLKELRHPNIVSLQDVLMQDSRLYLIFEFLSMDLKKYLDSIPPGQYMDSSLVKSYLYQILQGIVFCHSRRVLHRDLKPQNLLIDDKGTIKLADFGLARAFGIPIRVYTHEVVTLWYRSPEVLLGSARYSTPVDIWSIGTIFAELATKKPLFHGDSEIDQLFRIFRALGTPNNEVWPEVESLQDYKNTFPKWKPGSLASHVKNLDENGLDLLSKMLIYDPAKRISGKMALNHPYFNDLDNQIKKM
row,Variant,effect of a mutation on the interaction
1,T191V;T215V;T228V;T243V;T246V;S282V,decreasing interaction

# Variants of: B2
# Conditions: with zn365_human ZNF365, Q70YC5
row,Variant,effect of a mutation on the interaction
1,T191E;T215E;T228E;T243E;T246E;S282E,decreasing interaction

# Variants of: B2
# Conditions: with zn365_human ZNF365, Q70YC5
# Remark: another data set of the same source
row,Variant,effect of a mutation on the interaction
1,T191E;T215E;T228E;T243E;T246E;S282E,decreasing interaction
